Columns and labels:
purified protein [1] = substrate: O=C1O[C@H]([C@@H](O)CO)C(O)=C1O; experiment: purified protein; type: biochemical, Streptomyces coelicolor; conditions: H2O2 co-substrate (true Km from kcat app vs [AscA]), 50 mM sodium acetate pH 5.0, 25 °C, no polysaccharide, ping-pong
purified protein [2] = substrate: O=C1O[C@H]([C@@H](O)CO)C(O)=C1O; experiment: purified protein; type: biochemical, Neurospora crassa; conditions: H2O2 co-substrate (true Km from kcat app vs [AscA]), 50 mM sodium acetate pH 5.0, 25 °C, no polysaccharide, ping-pong

B1: ScAA10C (Streptomyces coelicolor A3(2)) (protein)
chain: HGVAMMPGSRTYLCQLDAKTGTGALDPTNPACQAALDQSGATALYNWFAVLDSNAGGRGAGYVPDGTLCSAGDRSPYDFSAYNAARSDWPRTHLTSGATIPVEYSNWAAHPGDFRVYLTKPGWSPTSELGWDDLELIQTVTNPPQQGSPGTDGGHYYWDLALPSGRSGDALIFMQWVRSDSQENFFSCSDVVFDGGNGEVTGIRGSGSTPDPDPTPTPTDPTTPPTHTGSCMAVYSVENSWSGGFQGSVEVMNHGTEPLNGWAVQWQPGGGTTLGGVWNGSLTSGSDGTVTVRNVDHNRVVPPDGSVTFGFTATSTGNDFPVDSIGCVAP
notes: copper-saturated; eps280 75,775; called ScAA10A by slip in places
Km (purified protein [1]): 25 ± 2 µM
kcat (purified protein [1]): 0.64 ± 0.02 s⁻¹
kcat/Km (purified protein [1]): 21000 ± 2000 M⁻¹ s⁻¹

B2: NcAA9C (Neurospora crassa OR74A) (protein)
chain: HTIFQKVSVNGADQGQLKGIRAPANNNPVTDVMSSDIICNAVTMKDSNVLTVPAGAKVGHFWGHEIGGAAGPNDADNPIAASHKGPIMVYLAKVDNAATTGTSGLKWFKVAEAGLSNGKWAVDDLIANNGWSYFDMPTCIAPGQYLMRAELIALHNAGSQAGAQFYIGCAQINVTGGGSASPSNTVSFPGAYSASDPGILINIYGGSGKTDNGGKPYQIPGPALFTCPAGGSGGSSPAPATTASTPKPTSASAPKPVSTTASTPKPTNGSGSGTGAAHSTKCGGSKPAATTKASNPQPTNGGNSAVRAAALYGQCGGKGWTGPTSCASGTCKFSNDWYSQCLP
notes: N-terminal His not methylated; copper-saturated; eps280 46,910
Km (purified protein [2]): 145 ± 4 µM
kcat (purified protein [2]): 5.3 ± 0.1 s⁻¹
kcat/Km (purified protein [2]): 36000 ± 1000 M⁻¹ s⁻¹

— article PMC10458328, “The “life-span” of lytic polysaccharide monooxygenases (LPMOs) correlates to the number of turnovers in the reductant peroxidase reaction” (The Journal of Biological Chemistry, 2023)
